Experimental data taken from patent publication US20240101646A1 (published 2024).
Positions count from the first letter of the chain named.

Key:
SARS-CoV-2 NTD = SARS-CoV-2 NTD (SARS-CoV-2, UniProt P0DTC2 14-305)
SARS-CoV-2 RBD = SARS-CoV-2 RBD (SARS-CoV-2, UniProt P0DTC2 319-541)

B1: 53182-4 (antibody, V domains shown)
VH: QITLEESGPTLVTPTQTLTLTCSFSGFSLDTIGVAVAWIRQPPGKALEWLGTVFWDYDKRYSPPLSSRLTVIKDTSQQYVVLRLTDVGPGDTATYYCARLLIEHDAFDIWGQGAVVIVSS
VL: DVVVTQSPVSLPATPGEPASISCRASQSLLHRNGKHYLHWYLQRPGQSPQLLIYLGSNRASGVPDRFSGSGSGTVFSLKISRVEAEDVGIYYCMQALHFPYTFGQGTKLDIK
Kd (SARS-CoV-2 NTD): 2.28 nM

B2: 53182-6 (antibody, V domains shown)
VH: EVQLVESGGGLVQPGGSLRLSCAASGFTVSDNYMSWVRQAPGKGLQWVSVIYSGGNTYYADFVKGRFNITRDDSKNMLYLQMNSLRREDTAVYYCVRDRRIVGYYFGLDVWGQGTTVTVFS
VL: QSALTQPASVSGSPGQSITISCTGTSSDVRNYNLVSWYQQHPGKAPKLMIFEDSKRPSGVSNRFSGSKSGNTASLTIAGLQPEDEADYYCCSYATTWVFGGGTKVTVL
Kd (SARS-CoV-2 RBD): 0.935 nM

B3: 5317-6 (antibody, V domains shown)
VH: QLQLQESGPGLVKPSETLSLTCTVSGASISSSSYYWGWIRQPPGKGLEWIGTMYYRGSTDYNPSLKSRVTISVDTSKNQFSLRLSSVTAADTAVYYCARRVPGDYYCLDVWGKGTTVTVSS
VL: DIQLTQSPSSLSASVGDRVTVTCRASQSISDYLNWYQQKPGKAPKLLIYAASSLQTGVPPRFSGSGSGTDFTLTISSLQPEDFATYYCQQSFSARVPTFGGGTKVESK
Kd (SARS-CoV-2 RBD): 1.66 nM

B4: 53182-8 (antibody, V domains shown)
VH: QLQLQESGPGLVKPSETLSLTCTVSGGSISSSSYYWGWIRQPPGKGLEWIGTIYYSGSTYYNPSLKSRVTISVDTSKTQFSLKLSSVTAADTAVYYCARDRRGGGWTASFDFWGQGTLVTVSS
VL: not shown
Kd (SARS-CoV-2 RBD): 16.5 nM

B5: antibody 5317-4 (antibody, V domains shown)
VH: QVQLRLWGAGLLKPSETLSLTCAVSGGSFIDYYWTWIRQPPGKGLEWIGEINHFGGSGYNPSLKSRVSISVDTSKNQFSLRLNSVTAADTAIYYCARKPLLHSSVNPGAFDIWGQGTMLTVSS
VL: EIVLTQSPGTLSLSPGERAALSCRASQSVAGTYLAWYQQKPGQAPRLLIYGASSRATGIPDRFSGSGSGTDFTLTISRLEPEDFAVYYCQQYATSPRTFGQGTQLEIR
Kd (SARS-CoV-2 RBD): 1.78 nM

B6: 5317-5 (antibody, V domains shown)
VH: QVQLVQSGAEVKKPGSSVKVSCKASGGTFSSYPITWVRQAPGQGFEWMGKIIPILGIADYAQSFQGRVTITADKSTTTAYMELSSLRSEDTAVYYCAREKGYSSSSSATYYLDFWGQGTLVTVSS
VL: QSVLTQPPSVSGAPGQRVTISCTGSNSNIGAGYDVHWYQQLPGTAPRLLIYRNSNRPSGVPDRFSGSKSGTAASLAISGLQAEDEADYYCQSYDSSLTALVFGGGTKLTVL
Kd (SARS-CoV-2 RBD): 0.0826 nM

B7: 53182-11 (antibody, V domains shown)
VH: EVQLVEFGGGLVQPGRSLRLSCATSGFTFEDFDMHWVRQAPGKGLEWVSGSTWNSGIIGYADSVKGRFTTSRDNAKNSLYMQMNNLREEDTALYYCAKDIGRYDHYNIFGRVGGAFDIWGQGTMVTVSS
VL: DIQMTQSPSSLSASVGDRVTISCQTSQDISVSLNWYQQKPGKPPKVLIYDASNLEAGAPSRFSGSGSGTDFTFTISSLQPEDIATYYCQHYDNLPRFGPGTKVDIK
Kd (SARS-CoV-2 RBD): 3.18 nM

B8: 53182-3 (antibody, V domains shown)
VH: EVHLVESGGGLVQPGGSLRLSCAASGFTVSSNYMSWVRQAPGKGLEWVSVIYSGGNTYYADSVKGRFTISRDNSKNTLYLQMNSLRAEDTAVYYCARDRRIIGYYFGMDVWGRGTTVTVSS
VL: QSALTQPASVSGSPGQSITISCTGTSSYVGSFDLVSWYQQHPGKAPKLMIYEVSKRPSGVSNRFSGSKSGNTASLTISGLQAEDEADYYCCPYADTWVFGGGTKLTVL
Kd (SARS-CoV-2 RBD): 8.32 nM

B9: 53181-1 (antibody, V domains shown)
VH: QVQLVQSGAEVKKPGASVKVSCKASGYTFTNYVLTWVRQAPGQGLEWMGWISAYNGSTNYAQNLQGRVTMTTDTSTSTAYMELRSLRSDDTAVYYCARDPASYYDFWSGYVDYYYYGMDVWGQGTTVTVSS
VL: ELVLTQSPGTLSLSPGERATLSCRASQSVSSSYLAWYQQKPGQAPRLLIYSASSRATGIPDRFSGSGSGTDFTLTISRLEPEDFAVYYCQQYGNSRLTFGPGTKVDIK
Kd (SARS-CoV-2 NTD): 1.17 nM

B10: 53181-2 (antibody, V domains shown)
VH: B9 VH with N31S, V33S, L34I, T35N, N63K, F106L
VL: B9 VL with L2I, S51G, Q90H, Q91H, N94S
Kd (SARS-CoV-2 NTD): 31.3 nM

B11: 5317-7 (antibody, V domains shown)
VH: EVQLVGSGGGLVQPGGSLRLSCAASGFTFSTYWMSWVRQAPGKGLEWVADIKQDGSEKYYVDSVKGRFTISRDNAKNSLYLQMNSLRVEDTALYYCARGGLWGTFDYWGQGTLVTVSS
VL: EIVLTQSPGTLSLSPGERASLSCRASQSVSSSYLAWYQQKPGQAPRLLIYGASSRATGIPDRFSGSGSGTDFTLTISRLEPEDFAVYWCQQFAYSLYTFGQGTKLEIK
Kd (SARS-CoV-2 RBD): 10.5 nM

B12: 5317-1 (antibody, V domains shown)
VH: QMQLVQSGPEVKKPGTSVKVSCKASGFTFSTSVVQWVRQPRGQRLEWIGGIVVGRGNTKYAQNFQERVTITRDMSTSTAYMELSNLRSEDTAVYYCAADPFADYWGQGTLVTVSS
VL: not shown
Kd (SARS-CoV-2 RBD): 0.0434 nM

B13: 5317-3 (antibody, V domains shown)
VH: EVQLVESGGGLVQPGGSLRLSCSASGFTFSSYPMYWVRQAPGIGLEYVSGITDNGGSTYYGDSVKGRFTISRDNSKNTLNLQMNNLRTEDTAVYYCVKGKIQLWLGADYWGQGTLVTVSS
VL: DIQMTQSPSSLSASVGDRVTITCRANQTISSYLNWYQQKPGKAPKVLIFAASSLEGGVPSRFSGSGSGTDFTLTISSLQPEDFATYSCQQSYNTPWTFGQGTKVEIK
Kd (SARS-CoV-2 RBD): 1.92 nM

B14: 5317-2 (antibody, V domains shown)
VH: QVQLVQSGAEVKKPGSSVKVSCKVSGGTFSSYTIIWVRQAPGQGLEWMGRVIPVVHITHYAQRFRGRVTISADKSTSTAYMELSSLRSEDTAVYYCARGLWFGDSETVWFDPWGQGTLVTVSS
VL: DIQMTQSPSSLSASVGDRVTITCRASQNITYYLNWYQQKPGKAPNLLIYTASSLQSGVPSRFIGSGSGTDFTLTISSLQPEDFATYCCQQSYSTPPTFGQGTKVEIR
Kd (SARS-CoV-2 RBD): 1.95 nM

B15: 53182-9 (antibody, V domains shown)
VH: EVQLVESGGGLILPGGSLRLSCAASGVTVSSNYMNWVRQAPGKGLEWVSVIYSGGSTFYADSVKGRFTISRDNSKNTLYLQMNSLRAEDTAVYYCARGGWPSGDTFDIWGQGTMVTVSS
VL: DIQLTQSPSFLSASVGDRVTITCRASQGISSYLAWYQQKPGKAPKLLIYAASTLQSGVPSRFSGSGSGTEFTLTISSLQPEDFATYYCQQLNSYPEITFGPGTKVDIK
Kd (SARS-CoV-2 RBD): 0.0475 nM

B16: 53182-1 (antibody, V domains shown)
VH: B15 VH with L13Q, A23T, V27I, S31T, N35T, V50I, F58Y, E88D, A96T, Q111L
VL: B15 VL with A50G
Kd (SARS-CoV-2 RBD): 2.81 nM
